Test results from PMC3136439, “Auxin Response Factor2 (ARF2) and Its Regulated Homeodomain Gene HB33 Mediate Abscisic Acid Response in Arabidopsis”.
Substitutions are numbered along the chain they refer to.

Molecular target: T1, GST-ARF2 N-terminus (ARF2-N1-470, DNA-binding domain) (Arabidopsis thaliana, UniProt Q94JM3 1-470)
T1 sequence: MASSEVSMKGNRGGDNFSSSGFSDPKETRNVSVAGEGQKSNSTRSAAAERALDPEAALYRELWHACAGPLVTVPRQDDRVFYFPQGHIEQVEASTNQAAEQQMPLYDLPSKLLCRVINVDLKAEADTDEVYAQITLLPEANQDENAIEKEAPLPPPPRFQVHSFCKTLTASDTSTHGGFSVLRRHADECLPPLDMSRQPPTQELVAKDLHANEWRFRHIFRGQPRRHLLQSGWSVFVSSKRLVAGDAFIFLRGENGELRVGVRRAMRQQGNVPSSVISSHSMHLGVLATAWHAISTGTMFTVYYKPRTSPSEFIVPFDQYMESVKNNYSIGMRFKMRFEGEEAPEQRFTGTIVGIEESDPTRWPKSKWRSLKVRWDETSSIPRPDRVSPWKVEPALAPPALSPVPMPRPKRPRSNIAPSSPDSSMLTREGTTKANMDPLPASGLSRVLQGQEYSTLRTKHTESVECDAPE
Assay: EMSA; poly(dI-dC); EMSA: 5x buffer 50 mM HEPES-KOH pH 7.5, 375 mM KCl, 6.25 mM MgCl (so in the source), 1 mM DTT, 0.5 ug/mL BSA, 25% glycerol; 25 fmol probe, 6 ug protein, 1 ug poly(dI-dC) in 20 ul, room temperature 20 min; 6.5% native PAGE in TGE pH 8.3
Conditions: protein: recombinant; tags: GST; chain copies: 2; blunt

B1: HB33 promoter probe (dsDNA)
DNA 1: CCAAATTGTCTCTTATAATCCGATCTCAAAGGTTGGCTTGTTGGGAGCACTGAGACATCAAAC
DNA 2: GTTTGATGTCTCAGTGCTCCCAACAAGCCAACCTTTGAGATCGGATTATAAGAGACAATTTGG
Does B1 bind?
Result: binds

B2: HB33 promoter mProbe (mP) (dsDNA)
DNA 1: B1 DNA 1 with T9A, T11A, A53T, A55T
DNA 2: B1 DNA 2 with T9A, T11A, A53T, A55T
Does B2 bind?
Result: no binding
